Test results taken from patent publication US20060204974A1.

Target: rat angiotensin type 1a receptor (AT1aR) (rat) (UniProt P25095)
Experiment: cell-based or functional assay

Chain of UniProt P25095 (P25095 whole entry): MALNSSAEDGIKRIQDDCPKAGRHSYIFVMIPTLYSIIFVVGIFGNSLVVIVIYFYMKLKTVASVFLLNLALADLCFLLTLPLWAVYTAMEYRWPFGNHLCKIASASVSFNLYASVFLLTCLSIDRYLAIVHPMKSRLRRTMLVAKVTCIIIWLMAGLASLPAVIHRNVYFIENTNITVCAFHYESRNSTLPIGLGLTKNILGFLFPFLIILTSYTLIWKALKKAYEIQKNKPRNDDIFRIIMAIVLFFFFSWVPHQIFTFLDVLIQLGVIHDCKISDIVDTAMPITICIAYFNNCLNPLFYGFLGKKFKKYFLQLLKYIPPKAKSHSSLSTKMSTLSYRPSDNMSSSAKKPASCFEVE

Ang II (100 nM) stimulated inositol phosphate production, Ang II-basal (cpm), CHO cells stably expressing E1,2,3: 260 cpm
Ang II (100 nM) stimulated inositol phosphate production, Ang II-basal (cpm), CHO cells stably expressing E1,3: 1320 cpm
Ang II-induced IP production (cpm), 100 nM Ang II, CHO clones stably expressing QM: 1640 cpm
Ang II-induced IP production (cpm), 100 nM Ang II, CHO clones stably expressing WT: 322 cpm
angiotensin II/basal inositol phosphate accumulation, 100 nM angiotensin II for 20 min, A10 cells transiently transfected with E2 plasmid (ratio (angiotensin II/basal)): 1.35
angiotensin II/basal inositol phosphate accumulation, 100 nM angiotensin II for 20 min, A10 cells transiently transfected with ΔE2 plasmid (ratio (angiotensin II/basal)): 1.8
Substance: Angiotensin II (from UniProt P01019 25-476) (peptide)
